Results taken from patent US5576288A, “Fibroblast growth factor conjugates” (The Salk Institute For Biological Studies, priority 1994, dated 1996).

Columns and labels:
[1] = tested on: BHK cells; experiment: competition of cytotoxicity by preincubation with basic FGF or NGF; assay type: cell-based, baby hamster; details: BHK cells preincubated one hour; basic FGF-SAP 10^-10 M; up to thousand-fold excess; FIG. 4
Description: Basic FGF-SAP was used at a concentration of 10^-10 M basic FGF-AP and C: preincubation with equimolar free of basic FGF; D: 10-fold excess of free basic FGF; E: 100-fold excess of basic FGF; F: 1000-fold excess of basic FGF; G: equimolar incubation with equimolar free NGF; H: 10-fold molar excess; I: 100-fold molar excess, J: […].
Specificity of the cytotoxic agent was examined in competition experiments in an effort to establish that the mitotoxic activity of the conjugate is receptor specific. BHK cells were preincubated for one hour with various levels of basic FGF or nerve growth factor (NGF) prior to treatment of the cells with the cytotoxic agent. […] In contrast, a thousand-fold excess of NGF has no effect.

[2] = tested on: BHK cells; experiment: cytotoxic activity on BHK cells (cell count after two days); assay type: cell-based, baby hamster; details: highest dose tested 10^-8 M, FIG. 3
Description: The protein synthesis inhibition activity of the SAP protein was compared to the protein synthesis inhibition activity of the basic FGF-SAP conjugate in in vitro assays of protein synthesis as described in Siehn et al., Blood, 72:756-765 (1988), which is incorporated herein by reference. The cytotoxic activity of the conjugate was tested on baby hamster kidney fibroblasts (ATCC Accession No. CRL 6281). BHK cells were plated in 24 well plates at a concentration of 5000 cells/ml and incubated overnight at 37° C., 5% CO2. The following morning, HEPES-buffered DMEM and F-12 media (1:1) plus 5% FCS was aspirated from the wells and replaced with media alone or with media containing the conjugate, basic FGF or saporin. Two days later, the cells were washed twice, trypsinized and cell number determined with a Coulter Particle Counter (Coulter Electronics, Hialeah, Fla.).

Row | Substance | effect of preincubation on cytotoxic activity of basic FGF-SAP [1] | toxic effect on BHK cell proliferation [2]
1 | NGF: nerve growth factor used as competition control | no effect | –
2 | SAP: type-1 ribosome-inactivating protein isolated from the seeds of Saponaria officinalis | – | no toxic effect
